Assay results: US20190338002A1 (Pieris, published 2019)

Tests used:
[1] = target: T1, human alpha CGRP (SEQ ID NO: 80) (human, not fully specified); assay: SPR Biacore 37 °C, protein captured as ligand, ha CGRP (1-37) injected, 1:1 fit of a flat sensorgram; run 130301_NAN-DS-049
T1 construct: also called human αCGRP; hαCGRP
T1 peptide: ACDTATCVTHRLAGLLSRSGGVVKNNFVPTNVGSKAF
Protocol: (§1) The Biotin CAPture Kit (GE Healthcare) was used to immobilize biotinylated lipocalin muteins to a chip surface. Muteins were biotinylated using standard NHS chemistry. Undiluted Biotin CAPture Reagent (streptavidin conjugated with ss-DNA oligo) was captured on a Sensor Chip CAP with the pre-immobilized complementary ss-DNA oligo. Thereafter, biotinylated muteins at 1 μg/mL were applied for 300 s at a flow rate of 5 μL/min.
(§2) CGRP species were applied in three concentrations of 30 nM, 3 nM and 0.3 nM at a flow rate of 30 μL/min or in a single concentration of 25 nM per cycle as shown in FIG. 2. The dilutions were injected with association times of 180 s and dissociation times of 5400 sec to obtain ka and kd information. Regeneration of the chip surface was achieved by injecting 6 M Guanidinium-HCl+0.25 M NaOH (120 s) with a flow rate of 10 μL/min. […]
(§3) The data were double-referenced by subtraction of the corresponding signals measured for the control channel (loaded with Biotin CAPture reagent only) and by subtraction of buffer injections from the binding responses. Association rate constant ka and dissociation rate constant kd for the binding reaction were determined using Biacore T200 Evaluation Software V2.0 for data processing and kinetic fitting. […]

[2] = target: T2, rat alpha CGRP (SEQ ID NO: 82) (rat); assay: SPR Biacore 37 °C, protein captured as ligand, ra CGRP (1-37) injected, 1:1 fit of a flat sensorgram; run 130208_NAN-DS-047 [contd]
T2 construct: also called rat αCGRP; rat α-CGRP
T2 peptide: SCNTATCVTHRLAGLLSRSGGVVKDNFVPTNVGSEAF
Protocol: as §1, §2, §3

[3] = target: T3, human beta CGRP (SEQ ID NO: 81) (human, not fully specified); assay: SPR Biacore 37 °C, protein captured as ligand, hb CGRP (1-37) injected, 1:1 fit of a flat sensorgram; run 130301_NAN-DS-049
T3 construct: also called human βCGRP; hβCGRP
T3 peptide: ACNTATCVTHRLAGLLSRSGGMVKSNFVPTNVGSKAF
Protocol: as §1, §2, §3

[4] = target: T4, rat beta CGRP (SEQ ID NO: 83) (rat, not fully specified); assay: SPR Biacore 37 °C, protein captured as ligand, rb CGRP (1-37) injected, 1:1 fit of a flat sensorgram; run 130208_NAN-DS-047 [contd]
T4 construct: also called rat βCGRP; rat β-CGRP
T4 peptide: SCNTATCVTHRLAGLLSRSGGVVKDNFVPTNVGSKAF
Protocol: as §1, §2, §3

[5] = target: T1, human alpha CGRP (SEQ ID NO: 80); assay: SPR Biacore 37 °C, protein captured as ligand, ha CGRP (1-37) injected, 1:1 fit of a flat sensorgram; run 130208_NAN-DS-047 [contd]
Protocol: as §1, §2, §3

[6] = target: T2, rat alpha CGRP (SEQ ID NO: 82); assay: SPR Biacore 37 °C, protein captured as ligand, ra CGRP (1-37) injected, 1:1 fit of a flat sensorgram; run 130301_NAN-DS-049
Protocol: as §1, §2, §3

[7] = target: T3, human beta CGRP (SEQ ID NO: 81); assay: SPR Biacore 37 °C, protein captured as ligand, hb CGRP (1-37) injected, 1:1 fit of a flat sensorgram; run 130208_NAN-DS-047 [contd]
Protocol: as §1, §2, §3

[8] = target: T4, rat beta CGRP (SEQ ID NO: 83); assay: SPR Biacore 37 °C, protein captured as ligand, rb CGRP (1-37) injected, 1:1 fit of a flat sensorgram; run 130301_NAN-DS-049
Protocol: as §1, §2, §3

[9] = target: T4, rat beta CGRP (SEQ ID NO: 83); assay: SPR Biacore 37 °C, mutein captured as ligand, sample PL1830 (rb CGRP) injected, 1:1 fit; repeat run 130903_NAN-DS-058 (not the run of Table 2) [contd]
Protocol: as §1, §2, §3

[10] = target: T3, human beta CGRP (SEQ ID NO: 81); assay: SPR Biacore 37 °C, mutein captured as ligand, hb CGRP (1-37) injected, 1:1 fit; repeat run 130208_NAN-DS-047 (not the run of Table 2) [contd]
Protocol: as §1
(§4) CGRP species were applied in three concentrations of 30 nM, 3 nM and 0.3 nM at a flow rate of 30 μL/min or in a single concentration of 25 nM per cycle as shown in FIG. 2. The dilutions were injected with association times of 180 s and dissociation times of 5400 sec to obtain ka and kd information. Regeneration of the chip surface was achieved by injecting 6 M Guanidinium-HCl+0.25 M NaOH (120 s) with a flow rate of 10 μL/min. Injection of regeneration solutions was followed by an extra wash step with HBS-EP+(1×; BR-1006-69; GE Healthcare) running buffer and a stabilization period of 120 s.
(§5) The data were double-referenced by subtraction of the corresponding signals measured for the control channel (loaded with Biotin CAPture reagent only) and by subtraction of buffer injections from the binding responses. Association rate constant ka and dissociation rate constant kd for the binding reaction were determined using Biacore T200 Evaluation Software V2.0 for data processing and kinetic fitting. The data were globally fit with 1:1 binding model.

[11] = target: T2, rat alpha CGRP (SEQ ID NO: 82); assay: SPR Biacore 37 °C, mutein captured as ligand, sample PL1829 (ra CGRP) injected, 1:1 fit; repeat run 130903_NAN-DS-058 (not the run of Table 2) [contd]
Protocol: as §1, §2, §3

[12] = target: T3, human beta CGRP (SEQ ID NO: 81); assay: SPR Biacore 37 °C, mutein captured as ligand, sample PL1828 (hb CGRP) injected, 1:1 fit; repeat run 130903_NAN-DS-058 (not the run of Table 2) [contd]
Protocol: as §1, §2, §3

[13] = target: T1, human alpha CGRP (SEQ ID NO: 80); assay: SPR Biacore 37 °C, mutein captured as ligand, ha CGRP (1-37) injected, 1:1 fit; repeat run 130208_NAN-DS-047 (not the run of Table 2) [contd]
Protocol: as §1, §4, §5

[14] = target: T4, rat beta CGRP (SEQ ID NO: 83); assay: SPR, 37 C, mutein captured, CGRP analyte
Summary of the method: (§6)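 Biotinylated lipocalin muteins were captured on streptavidin-oligo CAP chip, and CGRP was injected at 30, 3 and 0.3 nM or at a single 25 nM at 37 °C (180 s association, 5400 s dissociation) in HBS-EP+. Double-referenced sensorgrams were globally fit to a 1:1 model for ka and kd.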

[15] = target: T1, human alpha CGRP (SEQ ID NO: 80); assay: SPR, 37 C, mutein captured, CGRP analyte
Summary of the method: as §6

[16] = target: T3, human beta CGRP (SEQ ID NO: 81); assay: SPR, 37 C, mutein captured, CGRP analyte
Summary of the method: as §6

[17] = target: T2, rat alpha CGRP (SEQ ID NO: 82); assay: SPR, 37 C, mutein captured, CGRP analyte
Summary of the method: as §6

[18] = target: T4, rat beta CGRP (SEQ ID NO: 83); assay: SPR Biacore 37 °C, mutein captured as ligand, rb CGRP (1-37) injected, 1:1 fit; repeat run 130208_NAN-DS-047 (not the run of Table 2) [contd]
Protocol: as §1, §4, §5

[19] = target: T4, rat beta CGRP (SEQ ID NO: 83); assay: cell-based or functional assay
[20] = target: T1, human alpha CGRP (SEQ ID NO: 80); assay: cell-based or functional assay
[21] = target: T3, human beta CGRP (SEQ ID NO: 81); assay: cell-based or functional assay
[22] = target: T2, rat alpha CGRP (SEQ ID NO: 82); assay: cell-based or functional assay
[23] = target: T2, rat alpha CGRP (SEQ ID NO: 82); assay: SPR Biacore 37 °C, mutein captured as ligand, ra CGRP (1-37) injected, 1:1 fit; repeat run 130208_NAN-DS-047 (not the run of Table 2) [contd]
Protocol: as §1, §4, §5

[24] = target: T4, rat beta CGRP (SEQ ID NO: 83); assay: SPR Biacore 37 °C, mutein captured as ligand, rb CGRP sample PL1830 injected, 1:1 fit; repeat run 130903_NAN-DS-058 (not the run of Table 2) [contd]
[25] = target: T1, human alpha CGRP (SEQ ID NO: 80); assay: SPR Biacore 37 °C, mutein captured as ligand, sample PL1827 (ha CGRP) injected, 1:1 fit; repeat run 130903_NAN-DS-058 (not the run of Table 2) [contd]
Protocol: as §1, §4, §5

B1: hNGAL wildtype (SEQ ID NO:1) (other)
chain: QDSTSDLIPAPPLSKVPLQQNFQDNQFHGKWYVVGLAGNAILREDKDPQKMYATIYELKEDKSYNVTSVLFRKKKCDYWIRTFVPGSQPGEFTLGNIKSYPGLTSYLVRVVSTNYNQHAMVFFKKVSQNREYFKITLYGRTKELTSELKENFIRFSKSLGLPENHIVFPVPIDQCIDG
notes: also called human lipocalin 2; human Lcn 2
koff [1]: 0.00221 s⁻¹
kon [1]: 1200 M⁻¹ s⁻¹
koff [2]: 0.00259 s⁻¹
kon [2]: 1640 M⁻¹ s⁻¹
koff [3]: 0.0185 s⁻¹
koff [4]: 0.00414 s⁻¹
kon [4]: 1.1e+06 M⁻¹ s⁻¹
koff [5]: 0.00234 s⁻¹
kon [5]: 342000 M⁻¹ s⁻¹
koff [6]: 0.00105 s⁻¹
kon [6]: 970000 M⁻¹ s⁻¹
koff [7]: 0.000159 s⁻¹
kon [7]: 347000 M⁻¹ s⁻¹
koff [8]: 0.00233 s⁻¹
kon [8]: 1.62e+06 M⁻¹ s⁻¹

B2: lipocalin mutein SEQ ID NO: 11 (designed binder)
chain: QDSTSDLIPAPPLSKVPLQQNFQDNQFHGKWYVVGWAGNTLLREDKDPIKMQAIIYELKEDRSYNVTWVYFSEKKCNYHIETFVPGSQPGEFTLGTIKSYPGETPILVRVVSTNYNQHAMVFFKGVNQNREIFEIILYGRTKELTNELKENFIRFSKSLGLPENHIVFPVPIDQCIDGSAWSHPQFEK
notes: biotinylated by NHS chemistry for capture in SPR
kon [9]: 1.75e+06 M⁻¹ s⁻¹
koff [10]: 4.61e-05 s⁻¹
kon [10]: 4.14e+06 M⁻¹ s⁻¹
koff [11]: 8.08e-05 s⁻¹
kon [11]: 1.58e+06 M⁻¹ s⁻¹
koff [12]: 3.73e-05 s⁻¹
kon [12]: 2.41e+06 M⁻¹ s⁻¹
koff [13]: 5.31e-05 s⁻¹
kon [13]: 2.02e+06 M⁻¹ s⁻¹
Kd [14]: 0.042 nM
koff [14]: 7.3e-05 s⁻¹
kon [14]: 1.74e+06 M⁻¹ s⁻¹
Kd [15]: 0.015 nM
koff [15]: 4.55e-05 s⁻¹
kon [15]: 3.08e+06 M⁻¹ s⁻¹
Kd [16]: 0.007 nM
koff [16]: 5.63e-05 s⁻¹
kon [16]: 7.91e+06 M⁻¹ s⁻¹
Kd [17]: 0.08 nM
koff [17]: 7.6e-05 s⁻¹
kon [17]: 984000 M⁻¹ s⁻¹
koff [18]: 5.56e-05 s⁻¹
kon [18]: 969000 M⁻¹ s⁻¹
IC50, CGRP-induced cAMP production, L6 cells [19]: 0.06 nM
IC50, CGRP-induced cAMP production, SK-N-MC cells [20]: 0.11 nM
IC50, CGRP-induced cAMP production, SK-N-MC cells [21]: 0.22 nM
IC50, CGRP-induced cAMP production, L6 cells [22]: 0.08 nM
koff [23]: 7.72e-05 s⁻¹
kon [23]: 867000 M⁻¹ s⁻¹
koff [24]: 6.38e-05 s⁻¹
koff [25]: 6.55e-05 s⁻¹
kon [25]: 1.76e+06 M⁻¹ s⁻¹
